Here are results for 6 molecules from US20140087995A1 (published 2014).

T1: human calcitonin receptor (human, UniProt P30988 25-474)
T1 sequence (looked up): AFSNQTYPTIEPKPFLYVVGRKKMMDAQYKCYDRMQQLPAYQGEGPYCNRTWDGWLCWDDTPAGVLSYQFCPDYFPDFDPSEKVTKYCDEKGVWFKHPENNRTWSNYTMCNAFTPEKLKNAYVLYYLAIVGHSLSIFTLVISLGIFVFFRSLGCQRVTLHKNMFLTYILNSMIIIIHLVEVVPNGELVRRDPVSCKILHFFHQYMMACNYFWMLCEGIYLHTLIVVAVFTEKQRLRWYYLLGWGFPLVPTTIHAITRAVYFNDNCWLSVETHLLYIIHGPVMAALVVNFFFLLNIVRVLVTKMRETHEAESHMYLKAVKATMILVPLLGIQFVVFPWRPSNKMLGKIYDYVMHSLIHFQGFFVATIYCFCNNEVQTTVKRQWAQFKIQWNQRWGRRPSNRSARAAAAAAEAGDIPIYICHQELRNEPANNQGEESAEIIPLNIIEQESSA

B1: N^α1-[2-[2-[2-[[2-[2-[2-[[(4S)-4-carboxy-4-(19-carboxynonadecanoylamino)butanoyl]amino]ethoxy]ethoxy]acetyl]amino]ethoxy]ethoxy]acetyl]-[Glu14,Arg17,Pro21,Pro27 … (peptide)
peptide: {C20 diacid-γGlu-AEEA-AEEA}-KCNTATCATQRLAEFLRHSSPNFGAIPSSTNVGSNTP-NH2
modifications: disulfide 2-7
SMILES: CC[C@H](C)[C@H](NC(=O)[C@H](C)NC(=O)CNC(=O)[C@H](Cc1ccccc1)NC(=O)[C@H](CC(N)=O)NC(=O)[C@@H]1CCCN1C(=O)[C@H](CO)NC(=O)[C@H](CO)NC(=O)[C@H](Cc1c[nH]cn1)NC(=O)[C@H](CCCNC(=N)N)NC(=O)[C@H](CC(C)C)NC(=O)[C@H](Cc1ccccc1)NC(=O)[C@H](CCC(=O)O)NC(=O)[C@H](C)NC(=O)[C@H](CC(C)C)NC(=O)[C@H](CCCNC(=N)N)NC(=O)[C@H](CCC(N)=O)NC(=O)[C@@H](NC(=O)[C@H](C)NC(=O)[C@@H]1CSSC[C@H](NC(=O)[C@H](CCCCN)NC(=O)COCCOCCNC(=O)COCCOCCNC(=O)CC[C@H](NC(=O)CCCCCCCCCCCCCCCCCCC(=O)O)C(=O)O)C(=O)N[C@@H](CC(N)=O)C(=O)N[C@@H]([C@@H](C)O)C(=O)N[C@@H](C)C(=O)N[C@@H]([C@@H](C)O)C(=O)N1)[C@@H](C)O)C(=O)N1CCC[C@H]1C(=O)N[C@@H](CO)C(=O)N[C@@H](CO)C(=O)N[C@H](C(=O)N[C@@H](CC(N)=O)C(=O)N[C@H](C(=O)NCC(=O)N[C@@H](CO)C(=O)N[C@@H](CC(N)=O)C(=O)N[C@H](C(=O)N1CCC[C@H]1C(N)=O)[C@@H](C)O)C(C)C)[C@@H](C)O
notes: Synthetic acylated analogue of human amylin; also called compound 20
B2: N^α1-[(4S)-4-carboxy-4-[[(4S)-4-carboxy-4-(19-carboxynonadecanoylamino)butanoyl]amino]butanoyl]-[Glu14,Arg17,Pro21,Pro27,Pro37]-h-amylin (peptide)
peptide: {C20 diacid-γGlu-γGlu}-KCNTATCATQRLAEFLRHSSPNFGAIPSSTNVGSNTP-NH2
modifications: disulfide 2-7
SMILES: CC[C@H](C)[C@H](NC(=O)[C@H](C)NC(=O)CNC(=O)[C@H](Cc1ccccc1)NC(=O)[C@H](CC(N)=O)NC(=O)[C@@H]1CCCN1C(=O)[C@H](CO)NC(=O)[C@H](CO)NC(=O)[C@H](Cc1c[nH]cn1)NC(=O)[C@H](CCCNC(=N)N)NC(=O)[C@H](CC(C)C)NC(=O)[C@H](Cc1ccccc1)NC(=O)[C@H](CCC(=O)O)NC(=O)[C@H](C)NC(=O)[C@H](CC(C)C)NC(=O)[C@H](CCCNC(=N)N)NC(=O)[C@H](CCC(N)=O)NC(=O)[C@@H](NC(=O)[C@H](C)NC(=O)[C@@H]1CSSC[C@H](NC(=O)[C@H](CCCCN)NC(=O)CC[C@H](NC(=O)CC[C@H](NC(=O)CCCCCCCCCCCCCCCCCCC(=O)O)C(=O)O)C(=O)O)C(=O)N[C@@H](CC(N)=O)C(=O)N[C@@H]([C@@H](C)O)C(=O)N[C@@H](C)C(=O)N[C@@H]([C@@H](C)O)C(=O)N1)[C@@H](C)O)C(=O)N1CCC[C@H]1C(=O)N[C@@H](CO)C(=O)N[C@@H](CO)C(=O)N[C@H](C(=O)N[C@@H](CC(N)=O)C(=O)N[C@H](C(=O)NCC(=O)N[C@@H](CO)C(=O)N[C@@H](CC(N)=O)C(=O)N[C@H](C(=O)N1CCC[C@H]1C(N)=O)[C@@H](C)O)C(C)C)[C@@H](C)O
notes: Synthetic acylated analogue of human amylin; also called compound 14
B3: N^α1-[(4S)-4-carboxy-4-(19-carboxynonadecanoylamino)butanoyl]-[Glu14,Arg17,Pro21,Pro27,Asp35,Pro37]-h-amylin (peptide)
peptide: {C20 diacid-γGlu}-KCNTATCATQRLAEFLRHSSPNFGAIPSSTNVGSDTP-NH2
modifications: disulfide 2-7
SMILES: CC[C@H](C)[C@H](NC(=O)[C@H](C)NC(=O)CNC(=O)[C@H](Cc1ccccc1)NC(=O)[C@H](CC(N)=O)NC(=O)[C@@H]1CCCN1C(=O)[C@H](CO)NC(=O)[C@H](CO)NC(=O)[C@H](Cc1c[nH]cn1)NC(=O)[C@H](CCCNC(=N)N)NC(=O)[C@H](CC(C)C)NC(=O)[C@H](Cc1ccccc1)NC(=O)[C@H](CCC(=O)O)NC(=O)[C@H](C)NC(=O)[C@H](CC(C)C)NC(=O)[C@H](CCCNC(=N)N)NC(=O)[C@H](CCC(N)=O)NC(=O)[C@@H](NC(=O)[C@H](C)NC(=O)[C@@H]1CSSC[C@H](NC(=O)[C@H](CCCCN)NC(=O)CC[C@H](NC(=O)CCCCCCCCCCCCCCCCCCC(=O)O)C(=O)O)C(=O)N[C@@H](CC(N)=O)C(=O)N[C@@H]([C@@H](C)O)C(=O)N[C@@H](C)C(=O)N[C@@H]([C@@H](C)O)C(=O)N1)[C@@H](C)O)C(=O)N1CCC[C@H]1C(=O)N[C@@H](CO)C(=O)N[C@@H](CO)C(=O)N[C@H](C(=O)N[C@@H](CC(N)=O)C(=O)N[C@H](C(=O)NCC(=O)N[C@@H](CO)C(=O)N[C@@H](CC(=O)O)C(=O)N[C@H](C(=O)N1CCC[C@H]1C(N)=O)[C@@H](C)O)C(C)C)[C@@H](C)O
notes: Synthetic acylated analogue of human amylin; also called compound 11
B4: N^α1-[(4S)-4-carboxy-4-(19-carboxynonadecanoylamino)butanoyl]-[Glu14,Arg17,Pro21,Pro26,Pro37]-h-amylin (peptide)
peptide: {C20 diacid-γGlu}-KCNTATCATQRLAEFLRHSSPNFGAPLSSTNVGSNTP-NH2
modifications: disulfide 2-7
SMILES: CC(C)C[C@H](NC(=O)[C@H](CCCNC(=N)N)NC(=O)[C@H](CCC(N)=O)NC(=O)[C@@H](NC(=O)[C@H](C)NC(=O)[C@@H]1CSSC[C@H](NC(=O)[C@H](CCCCN)NC(=O)CC[C@H](NC(=O)CCCCCCCCCCCCCCCCCCC(=O)O)C(=O)O)C(=O)N[C@@H](CC(N)=O)C(=O)N[C@@H]([C@@H](C)O)C(=O)N[C@@H](C)C(=O)N[C@@H]([C@@H](C)O)C(=O)N1)[C@@H](C)O)C(=O)N[C@@H](C)C(=O)N[C@@H](CCC(=O)O)C(=O)N[C@@H](Cc1ccccc1)C(=O)N[C@@H](CC(C)C)C(=O)N[C@@H](CCCNC(=N)N)C(=O)N[C@@H](Cc1c[nH]cn1)C(=O)N[C@@H](CO)C(=O)N[C@@H](CO)C(=O)N1CCC[C@H]1C(=O)N[C@@H](CC(N)=O)C(=O)N[C@@H](Cc1ccccc1)C(=O)NCC(=O)N[C@@H](C)C(=O)N1CCC[C@H]1C(=O)N[C@@H](CC(C)C)C(=O)N[C@@H](CO)C(=O)N[C@@H](CO)C(=O)N[C@H](C(=O)N[C@@H](CC(N)=O)C(=O)N[C@H](C(=O)NCC(=O)N[C@@H](CO)C(=O)N[C@@H](CC(N)=O)C(=O)N[C@H](C(=O)N1CCC[C@H]1C(N)=O)[C@@H](C)O)C(C)C)[C@@H](C)O
notes: Synthetic acylated analogue of human amylin; also called compound 5
B5: N^α1-[(4S)-4-carboxy-4-(19-carboxynonadecanoylamino)butanoyl]-[Asp14,Arg17,Pro21,Pro27,Pro37]-h-amylin (peptide)
peptide: {C20 diacid-γGlu}-KCNTATCATQRLADFLRHSSPNFGAIPSSTNVGSNTP-NH2
modifications: disulfide 2-7
SMILES: CC[C@H](C)[C@H](NC(=O)[C@H](C)NC(=O)CNC(=O)[C@H](Cc1ccccc1)NC(=O)[C@H](CC(N)=O)NC(=O)[C@@H]1CCCN1C(=O)[C@H](CO)NC(=O)[C@H](CO)NC(=O)[C@H](Cc1c[nH]cn1)NC(=O)[C@H](CCCNC(=N)N)NC(=O)[C@H](CC(C)C)NC(=O)[C@H](Cc1ccccc1)NC(=O)[C@H](CC(=O)O)NC(=O)[C@H](C)NC(=O)[C@H](CC(C)C)NC(=O)[C@H](CCCNC(=N)N)NC(=O)[C@H](CCC(N)=O)NC(=O)[C@@H](NC(=O)[C@H](C)NC(=O)[C@@H]1CSSC[C@H](NC(=O)[C@H](CCCCN)NC(=O)CC[C@H](NC(=O)CCCCCCCCCCCCCCCCCCC(=O)O)C(=O)O)C(=O)N[C@@H](CC(N)=O)C(=O)N[C@@H]([C@@H](C)O)C(=O)N[C@@H](C)C(=O)N[C@@H]([C@@H](C)O)C(=O)N1)[C@@H](C)O)C(=O)N1CCC[C@H]1C(=O)N[C@@H](CO)C(=O)N[C@@H](CO)C(=O)N[C@H](C(=O)N[C@@H](CC(N)=O)C(=O)N[C@H](C(=O)NCC(=O)N[C@@H](CO)C(=O)N[C@@H](CC(N)=O)C(=O)N[C@H](C(=O)N1CCC[C@H]1C(N)=O)[C@@H](C)O)C(C)C)[C@@H](C)O
notes: Synthetic acylated analogue of human amylin; also called compound 10
B6: N^α1-[(4S)-4-carboxy-4-(19-carboxynonadecanoylamino)butanoyl]-[Glu14,Arg17,Pro21,Pro27,Pro37]-h-amylin (peptide)
peptide: {C20 diacid-γGlu}-KCNTATCATQRLAEFLRHSSPNFGAIPSSTNVGSNTP-NH2
modifications: disulfide 2-7
SMILES: CC[C@H](C)[C@H](NC(=O)[C@H](C)NC(=O)CNC(=O)[C@H](Cc1ccccc1)NC(=O)[C@H](CC(N)=O)NC(=O)[C@@H]1CCCN1C(=O)[C@H](CO)NC(=O)[C@H](CO)NC(=O)[C@H](Cc1c[nH]cn1)NC(=O)[C@H](CCCNC(=N)N)NC(=O)[C@H](CC(C)C)NC(=O)[C@H](Cc1ccccc1)NC(=O)[C@H](CCC(=O)O)NC(=O)[C@H](C)NC(=O)[C@H](CC(C)C)NC(=O)[C@H](CCCNC(=N)N)NC(=O)[C@H](CCC(N)=O)NC(=O)[C@@H](NC(=O)[C@H](C)NC(=O)[C@@H]1CSSC[C@H](NC(=O)[C@H](CCCCN)NC(=O)CC[C@H](NC(=O)CCCCCCCCCCCCCCCCCCC(=O)O)C(=O)O)C(=O)N[C@@H](CC(N)=O)C(=O)N[C@@H]([C@@H](C)O)C(=O)N[C@@H](C)C(=O)N[C@@H]([C@@H](C)O)C(=O)N1)[C@@H](C)O)C(=O)N1CCC[C@H]1C(=O)N[C@@H](CO)C(=O)N[C@@H](CO)C(=O)N[C@H](C(=O)N[C@@H](CC(N)=O)C(=O)N[C@H](C(=O)NCC(=O)N[C@@H](CO)C(=O)N[C@@H](CC(N)=O)C(=O)N[C@H](C(=O)N1CCC[C@H]1C(N)=O)[C@@H](C)O)C(C)C)[C@@H](C)O
notes: Synthetic acylated analogue of human amylin; also called compound 8

Numbered stars: 1 amine (or outer) side, 2 acyl side, 3 side chain; on linkers, the order of the positions; unused ones are H or OH. Bridge positions count the residues as written; N and C are the ends. * marks the point of attachment. C20 diacid = O=C(O)CCCCCCCCCCCCCCCCCCC(=O)*; γGlu = O=C(O)[C@H](CCC(=O)[*:2])N[*:1]; AEEA = NCCOCCOCC(=O)O

This experiment deals with T1, human calcitonin receptor. Briefly: cell-based or functional assay.
Consider B1, for which the “hCTR funct. EC50 (CRE luciferase reporter, BHK cells)” value (“hCTR funct. EC50” for short) turned out to be 0.285 nM.

Turning to B2, the “hCTR funct. EC50” value worked out at 0.238 nM.

As for B3, the “hCTR funct. EC50” value is 0.112 nM.

Take B4: the “hCTR funct. EC50” value was determined as 0.16 nM.

Take B5: the “hCTR funct. EC50” value was found to be 0.07 nM.

Regarding B6, the “hCTR funct. EC50” value was found to be 0.087 nM.
